From patent publication US20210277053A1 come the findings set out here.

Like-named read-outs stand apart in the source and are kept apart here.

What all share (assay): ELISA on immobilised human gamma globulin, anti-6-His detection; antibody-binding activity after 0.5 M NaOH, 25 C, 15 h divided by activity without alkali treatment
Experiment [1] has as its target gamma globulin (manufactured by The Chemo-Sero-Therapeutic Research Institute), a human antibody (human).
The target is the same in experiment [2]. The source holds these as a separate data set.
Experiment [3] shares this target. The source holds these as a separate data set.
The target is the same in experiment [4]. The source holds these as a separate data set.

Take “SpA5d (SpA4a with Asn11Lys) (designed binder)”: the Remaining activity [%] in experiment [1] came out at 86%; in experiment [2] it was 89%; in experiment [3], 88%.

Consider “SpA5e (SpA4a with Asn11Tyr) (designed binder)”, for which, in experiment [2], the Remaining activity [%] was 85%.

In experiment [3], “SpA5f (SpA5d with Lys(Glu)58Gly) (designed binder)” showed a Remaining activity [%] of 90%.

“SpA6a (SpA5d with Glu15Ala) (designed binder)”: the Remaining activity [%] was 83% in experiment [4], 86% in experiment [2] and 91% in experiment [3].

“SpA6b (SpA6a with Lys(Glu)58Asp) (designed binder)”: the Remaining activity [%] in experiment [2] came to 87%.

“SpA6c (SpA6a with Lys(Glu)58Val) (designed binder)” came in with a Remaining activity [%] in experiment [2] of 87%.

In experiment [2], “SpA7a (SpA6a with Val40Ala) (designed binder)” yielded a Remaining activity [%] of 89%.

In the case of “SpA7b (SpA6a with Asn3Ile) (designed binder)”, the Remaining activity [%] in experiment [4] turned out to be 88%.
